In PMC4893494, “Identification and Characterization of Five BAHD Acyltransferases Involved in Hydroxycinnamoyl Ester Metabolism in Chicory” (Frontiers in Plant Science, 2016):

Key:
Assay in all cases: HPLC-UV of product, Michaelis-Menten
Format in all cases: biochemical, Cichorium intybus
[1] = substrate: O=C(O)[C@]1(O)C[C@@H](O)[C@@H](O)[C@H](O)C1; details: acyl acceptor varied, saturating caffeoyl-CoA (800 μM), 50 mM phosphate pH 7.1, room temperature
Source text: HPLC-UV of product, Michaelis-Menten on HQT1 (CiHQT1)

[2] = substrate: O=C(O)[C@]1(O)C[C@@H](O)[C@@H](O)[C@H](O)C1; details: acyl acceptor varied, saturating caffeoyl-CoA (800 μM), 50 mM phosphate pH 7.1, room temperature; remark: listed apart in the source
Source text: HPLC-UV of product, Michaelis-Menten on HQT2 (CiHQT2)

[3] = substrate: O=C(O)[C@]1(O)C[C@@H](O)[C@@H](O)[C@H](O)C1; details: acyl acceptor varied, saturating caffeoyl-CoA (800 μM), 50 mM phosphate pH 7.1, room temperature; remark: listed apart in the source
Source text: HPLC-UV of product, Michaelis-Menten on HQT3 (CiHQT3)

[4] = substrate: O=C(O)C1=C[C@@H](O)[C@@H](O)[C@H](O)C1; details: acyl acceptor varied, saturating p-coumaroyl-CoA (800 μM), 50 mM phosphate pH 7.1, room temperature
Source text: HPLC-UV of product, Michaelis-Menten on HCT1 (CiHCT1)

B1: HQT1 (CiHQT1) (Cichorium intybus) (protein)
chain: MTNGAGSEKMKVTVKESVIVKPSKTTPIQRLWNSNIDLLVGRIHLLTIYFYRPNGSSDFFDSGVLKKALSDVLVSFFPMAGRLGKDGDGRVEINCNAEGVWFVEAEADCRIDDFGEITPSPELRRLAPTVDYSGDISSYPLFITQVTRFKCGGVSLGCGVHHTLSDGFSSLHFINTWSDVARGLSVAIPPFNDRTLLRARDPPTPMYDHVEYHPPPSLITPPENHKPPASTTILRLTLDQINDLKSKGKGDGSVYHSTFVIIAAHLWRSACKARGLSDDQPTKLYVATDGRSRLIPPLPSGYLGNVLFTTTPMAKSGEFKSESLADTARRIHNELARMDDQYMRSAIDYLELQSDLSALVRGPTYFASPNLNVNSWTRLPLYESDFGWGRPIFMGPASILYEGTIYIIPSPTDDRSLKLAVCLDSDHMSLFQKYLYDF
[1]
  Km: 162 ± 34 µM
  Vmax: 6.78 µmol/min/mg
  Vmax/Km: 42000 µL/min/mg

B2: HQT2 (CiHQT2) (Cichorium intybus) (protein)
chain: MGSDQKMMMNINIKKSSIIPPSETIPECPKQLWTSNLDLVVGRIHILTVYFYRPNGSANFFDPNVMKKALADVLVSFYPMAGRLDRDESGRIVINCNGEGVLFVEAESDSTLDDFGEFTPSPEFRRLTPTVDYSGDISSYPLFFAQVTHFKCGGVALGCGVFHTLSDGLSSLHFINTWSDMARGLSVAIPPFIERTLLRAREPPTPTHDHVEYHEPPSMSPTAQKPGSGSSTTMLKLTLDQLNTLKVKAKIESGQTHSTYEILAAHIWRCACKARGLPDDQLTKLYVATDGRSRLSPRLPPGYLGNVVFTATPVAKSGDLTSGSLSNTAKLIHTTLTKMDDDYLRSAIDYLESQKDLSALIRGPTYFASPNLNINAWTRLPVHDADFGYGRPIFMGPAQILYEGTVYVLPSPNNDRSVSLAVCLDANEQSLFEKFLYEL
[2]
  Km: 613 ± 53 µM
  Vmax: 8.04 µmol/min/mg
  Vmax/Km: 13200 µL/min/mg

B3: HQT3 (CiHQT3) (Cichorium intybus) (protein)
chain: MGSDHKTMKINIKQSSLVQPSKPTIPSNKKLWTSNLDLVVGRIHILTVYFYRPNGCSNFFDPVVMKKALADVLVSFYPFAGRLSRDQNGRLEINCNGEGVLFVEAESDSTLDDFGEFTPSPELRRLTPTVDYSGDISSYPLFFAQVTHFKCGGVGLGCGVFHTLADGLSSIHFINTWSDMTRGLSIAVPPFTDRTLLRARETPTPTFDHVEYHLPPTMNTTSQNPKSSRKPSTNMLKLTIDQLNALKTAAKNDGGNTAYSTYEILAAHLWRCACKARGLPNDQQTKLYVATDGRSRLSPQLPPGYLGNVVFTATPMAKSGDLTTQPLSNSASLIRSTLSKMDNEYLRSAIDYLEVQPDLSALIRGPSYFASPNLNINTWTRLPVHDADFGWGRPVFMGPAVILYEGTIYVLPSPNNDRSMSLAVCLDADEQPLFEKFLYEF
[3]
  Km: 318 ± 71 µM
  Vmax: 9.9 µmol/min/mg
  Vmax/Km: 31200 µL/min/mg

B4: HCT1 (CiHCT1) (Cichorium intybus) (protein)
chain: MKIEVRESTMVRPAEETPKINLWNSNVDLVVPNFHTPSVYFYRPNGATNFFDPKVMKDALSKALVPFYPMGGRLKRDEDGRIEIDCQGQGVLFVEAESDGMVDDFGDFAPTLELRKLIPAVDYSQGIESYPLLVLQVTYFKCGGVSLGVGMQHHAADGASGLHFINTWSDMARGLDLTIPPFIDRTLLRARDPPQPAFEHVEYQPAPQMKTTSKSTDEQPVPETAVAIFKLTRDQLNALKAKSKENGNTINYSSYEMLSGHVWRCVCKARNLPADQDTKLYIATDGRARLRPSLPPGYFGNVIFTTTPIAVAGELMSNPTWYAAGKIHDGLAKMDNDYLKSALDYLELQPDLKALVRGAHSFRCPNLGITSWARLPIHDADFGWGRPIFMGPGGIAYEGLSFVLPSPINDGSLSIAISLQAEHMKVFSKFLYDI
[4]
  Km: 320 ± 40 µM
  Vmax: 14.2 µmol/min/mg
  Vmax/Km: 44400 µL/min/mg
